Assay results from the DeepSol protein solubility set.

Test: soluble on expression in E. coli; label from the status in PepcDB or PDB records

Sequence | soluble on expression in E. coli
VALLGLILPYFVSRWWARTQSYTKKGIHNVTASNFVSNLVNYKPSEIVTTDLILHWLSFAHEFKQFFPDLQPTDFEKLLQDHINRRDSGKLNNAKFRIVAKCHSLLHGLLDIACGFRNLDIALGAINTFKCIVQAVPLTPNCQILQLPNVDKEHFITKTGDIHTLGKLFTLEDAKIGEVLGIKDQAKLNETLRVASHIPNLKIIKADFLVPGENQVTPSSTPYISLKVLVRSAKQPLIPTSLIPEENLTEPQDFESQRDPFAMMSKQPLVPYSFAPFFPTKRRGSWCCLVSSQKDGKILQTPIII | not soluble
VDLSDEEKDSIYMFASLVEKMKSRPLNEILEDSKLQNLAQRVFASKARLNYALNDKAQKYNTLIEMNGKISEIMNIYDRLLEQQLQSINLS | soluble
VDNARIDLRSKYYVKPKADHPWLTRRTQSHQQVKPPKLPKKKPDPDKKD | soluble
VDWTDAERSAIVGLWGKISVDEIGPQALARLLIVSPWTQRHFSTFGNLSTPAAIMGNPAVAKHGKTVMHGLDRAVQNLDDIKNTYATLSVMHSEKLHVDPDNFRLLADCITVCVAAKLGPAVFSADTQEAFQKFLAVVVSALGRQYH | soluble
VDYTLRRRSLLAEVYSGRTGVSEVCDANPYLLRAAKFHGKPSRVICPICRKEQLTLVSWVFGEHLGAVSGSARTAEELILLATRFSEFAVHVVEVCRTCSWNHLVKSYVLGAARPARPPRGSGGTRTARNGARTASE | not soluble
VEADSNIGYNATFGYQKPMGGAGAYWGMEFGLGSRGFKADEMKCIAHNIQYSPFTFGWKIGVADNLSIDPHLGVFASYDYTSKMKESGESISWGDFADYLEVDYNHFDAGMNIGVGLWYDRFNLDFTYQRGFIDVFSDLDGIKTSNFMIRLGIAF | not soluble
VEGRFQLVAPYEPQGDQPQAIAKLVDGLRRGVKHQTLLGATGTGKTFTISNVIAQVNKPTLVIAHNKTLAGQLYSELKEFFPHNAVEYFVSYYDYYQPEAYVPQTDTYIEKDAKINDEIDKLRHSATSALFERRDVIIVASVSCIYGLGSPEEYRELVVSLRVGMEIERNALLRRLVDIQYDRNDIDFRGTFRVRGDVVEIFPASRDEHCIRVEFFGDEIERIRAEVDALTGKVLGEREHVAIFPASHFVTREEKMRLAIQNIEQELEERLAELRAQGKLLEAQRLEQRTRYDLEMMREMGFCSGIENYSRHLALRPPGSTPYTLLDYFPDDFLIIVDESHVTLPQLRGMYNGDRARKQVLVDHGFRLPSALDNRPLTFEEFEQKINQIIYVSATPGPYELEHSPGVVEQIIRPTGLLDPTIDVRPTKGQIDDLIGEIRERVERNERTLVTTLTKKMAEDLTDYLKEAGIKVAYLHSEIKTLERIEIIRDLRLGKYDVLVGINLLREGLDIPEVSLVAILDADKEGFLRSERSLIQTIGRAARNANGHVIMYADTITKSMEIAIQETKRRRAIQEEYNRKHGIVPRTVKKEIRDVIRATYAAEETEMYEAKPAAAMTKQEREELIRTLEAEMKEAAKALDFERAAQLRDIIFELKAEG | soluble
VFDRPLFALDFSKCTEKIIQTTELFKELVKEAILLHVVDYGKESEVEENIQKATQKLKEIAEKLDFPSEVVVHSGDASKEILMTAPSVGATLIVIGKRGRNILQLLMGSTAEIVIRNSVLPVLIVP | not soluble
VGFAPELYCGLENCYDVLEVNREEFDKQKLAKAYRALARKHHPDRVKNKEEKLLAEERFRVIATAYETLKDDEAKTNYDYYLDHPDQRFYNYYQYYRLRAAPKVDL | soluble
VGQMVAVNGYKISVFVKGQGSQTLVFLSGAGTASPILDFKDVYDGFSKEYKIVVVERADYGYSEDTSKSRDVSVILSETRQSLAKSQVSGPYIILSHSMASLETLLWQENYPSEVKAVVCLDWAFPESYFQLKRHPQMLRLARWESQLGLLRLLPRQLYMPNENLSDSDRRLYQEIAYRQLLSQAMLNESLCAKENDKKVNSTSIKSQMPVLLMVSNGKGTGFGQEQWRHYATSFAKGQKNMEVTYYDSPHYFYHYQTKEMIRSIEEFVQETTD | not soluble
VKEIIDGFLKFQREAFPKREALFKQLATQQSPRTLFISCSDSRLVPELVTQREPGDLFVIRNAGNIVPSYGPEPGGVSASVEYAVAALRVSDIVICGHSNCGAMTAIASCQCMDHMPAVSHWLRYADSARVVNEARPHSDLPSKAAAMVRENVIAQLANLQTHPSVRLALEEGRIALHGWVYDIESGSIAAFDGATRQFVPLAANPRVCAIPLRQPTAA | soluble
VKLLTDLFKAGLRTPSTDQIQKISMELSFYGKIESKNVFYWFQNHKARERQKCRKISTVKFDHRQDTDLSKPRRDNVRRHQLPAKG | not soluble
